The text below walks through data of patent publication US12428627B2, “Mutant p-hydroxyphenylpyruvate dioxygenase, and coding nucleic acid and use thereof” (Qingdao Kingagroot Chemical Compound Co., Ltd., priority 2018, dated 2025).

By Km is commonly meant the concentration of substrate that gives half-maximal velocity.

In one data set the test system is rice HPPD (OsHPPD). The data set is described as follows: Color reaction of recombinant E. coli expressing wild-type or mutant rice HPPD, cultured in 96-well plate in medium containing an HPPD-inhibiting herbicide and tyrosine. In kind it is cell-based, Oryza sativa. More on the design: key to relative resistance to Tembotrione / relative resistance to Benzuofucaotong metabolic product / relative resistance to Huanbifucaotong / relative resistance to Topramezone / relative resistance to Mesotrione / resistance to Tembotrione / resistance to Benzucfucaotong metabolic product / resistance to Huanbifucaotong / resistance to Topramezone / resistance to Mesotrione: The more the plus sign “+”, the deeper the color and the higher the resistance/tolerance as compared to the wild type. The conditions noted are these: for resistance ranking in color reaction: compound 101. An excerpt:
The rice full-length OsHPPD enzyme has 446 amino acids and its amino acid sequence is set forth in SEQ ID NO: 2, wherein the amino acids 1-50 are considered to constitute a signal peptide which is responsible for directing into chloroplast (Siehl et al. Plant Physiol. 2014 November; 166(3): 1162-1176). Therefore, from the amino acid at the 51-position to the amino acid at the […], a saturated random mutation was made for each amino acid. This was achieved by performing a bridge PCR by using a primer containing a coding sequence of an amino acid to be mutated into NNK and another suitable conventional primer. In NNK, N represented A/T/G/C and K represented G/T, and the NNK codon could encode any one of 20 amino acids or terminators. Accordingly, this was a saturated mutation. Please see: Kille S. Acevedo-Rocha C G, Parra L P, Zhang Z G, Opperman D J, Reetz M T, Acevedo J P (2013) Reducing codon redundancy and screening effort of combinatorial protein libraries created by saturation mutagenesis. ACS Synth Biol 2(2):83-92; Directed Evolution Library Creation: methods and protocols 2nd ed. Edited by Elizabeth M. J. Gillam, Janine N. Copp and David F. Ackerley New York, NY United States: Springer, 2014. doi:10.1007/978-1-4939-1053-3. A large number of mutants would be produced. The mutant was cloned into a linearized pET-44a vector and transformed into E. co/i, which was cultivated by using a 96-well plate in a 2×YT culture solution containing an HPPD-inhibiting herbicide (such as 1-2 μM tembotrione) and a substrate tyrosine (1 g/L) in a shaker at 28° C. and 150 rpm for 24 hours for expression, and then the mutants were rapidly screened out according to their color browning. By using the method, 10 single amino acid mutants, A103S, H141R, H141 K, H141T, A165V, V191I, R220K, G342D, D370N and K410I, were screened out. The color reaction of these resistant mutants in the presence of tembotrione and the metabolic product of benzuofucaotong relative to that of the wild type was as shown in FIG. 1.
Similarly, the color reaction of these mutants in the presence of the other three HPPD-inhibiting herbicides huanbifucaotong, topramezone and mesotrione were determined, see FIGS. 2 and 3. The resistance/tolerance of each of the mutants to the five herbicides was roughly estimated on the basis of color changes thereof and the results were shown in Table 1. The more the plus sign “+”, the deeper the color and the higher the resistance/tolerance as compared to the wild type.
HPPD-inhibiting herbicides inhibited HPPD enzymatic activity. When tyrosine was converted to 4-hydroxyphenylpyruvate (HPP) under the action of tyrosine transaminase, the inactivated HPPD was unable to oxidize 4-hydroxyphenylpyruvate into homogentisic acid (HGA). HGA was dark brown. Therefore, if an HPPD mutant was resistant to or tolerant to an herbicide, after expressed in E. coli, the mutant could also oxidize 4-hydroxyphenylpyruvate into homogentisic acid, whereby dark brown appeared. Therefore, E. coli was cultured in a 2×YT culture medium containing a HPPD-inhibiting herbicide and a substrate tyrosine using a 96-well plate to express HPPD, and these mutants were rapidly screened according to their color changes. • (1) Preparation of 2×YT culture medium (1 g/L L-Tyr, 0.1 mM IPTG, 0.01 mM MnCl2 and 100 mg/L ampicillin were added). • (2) 0.1 mL of the above medium was added to each well of a 96-well plate, and the expression clones of OsHPPD wild type or mutant (OsHPPD Mut) from the E. coli plate obtained by the above transformation were subjected to liquid culture in the 96-well plate. HPPD inhibitors having a final concentration of 1 μM-20 μM were added according to different selected agents, for example, the final concentration of tembotrione was 1.7 μM while mesotrione was 10 μM. […]

The next data set has as its system OsHPPD. Kind of data set: HPPD enzyme activity assay: Km, Kcat and Kcat/Km of OsHPPDs. Type of data set: biochemical, Oryza sativa. The conditions noted are these: for Km: substrate 4-HPP. As for the experimental part: The rice OsHPPD protein and homogentisate 1,2-dioxygenase (HGD) were obtained by heterologously expressed in E. coli wherein the gene was inserted into the pET 15b expression vector and expressed in the BL21 (DE3) expression strain, and purified by the Ni-NTA resin. • (1) The HPPD open reading frame (ORF) of the positive clone was cloned into the pET-15b vector to form a 6His-HPPD expression vector, and transformed into the BL21 (DE3) cell. The expression strain was inoculated in 10 mL of 2×YT culture medium, and cultivated overnight on a shaker at 37° C. and 200 rpm. The 10 mL of the culture was inoculated in 1 L of 2×YT culture medium and cultivated until the OD600 reached 0.6-0.8, cooled to a temperature of 16° C., and subjected to induced-expression with 0.2 mM IPTG (isopropyl thiogalactoside) overnight. The strains were collected by centrifugation at 2800×g. • (2) The collected strains were re-suspended with the buffer A (50 mM Tris pH 8.0, 500 mM NaCl, 20 mM imidazole), to which PMSF (phenylmethanesulfonyl fluoride) at the final concentration of 1 mM and 250 μL of a protease inhibitor cocktail (i.e., a mixture of multiple protease inhibitors), and mixed. The cells were broken by ultrasound in ice-bath (40% total power, work for 3 seconds/6 seconds interval, 2×30 minutes (Ningbo Scientz Biotechnology Co., Ltd., Ningbo, China)), and centrifuged at 12000 rpm at 4° C. for 30 minutes; and the supernatant was filtered with a 0.22 μm filter membrane. • (3) Purification with the Ni-NTA column: the supernatant was in contact with the Ni-NTA resin, then rinsed with a buffer A containing 50 mM imidazole to remove the impurities, and finally, eluted with an elution buffer containing 400 mM imidazole. • (4) The approximate purity of the protein of interest was analyzed by SDS-PAGE. The eluates containing of the protein of interest were combined and concentrated by an ultrafiltration device (10 kDa molecular weight cut-off, Amicon Ultra). The solution was replaced with a solution containing 20 mM Tris-HCl and having a pH of 7.5 for at least 3 times to desalt. The total protein concentration was determined by the BCA method.
(§1) • 1. The activity of a HPPD enzyme was determined by detecting the conversion of 4-hydroxyphenylpyruvate (4-HPP) to homogentisic acid (HGA) catalyzed by the HPPD enzyme and the conversion of HGA to maleylacetoacetate (MAA) catalyzed by homogentisate dioxygenase. […] 6 μl of 4-hydroxyphenylpyruvate (4-HPP) having a concentration that was as 50 times as the final concentration of the substrate were added to an ELSA plate, and then 294 μL of hydroxyethylpiperazine ethanesulfonic acid (HEPES) with a final concentration of 25 mM and pH of 7, 2 mM of Vitamin C, 10 mM FeSO4, 50 nM homogentisate dioxygenase and 5 to 240 nM HPPD enzyme were added thereto at one time. The final concentration of reaction substrate 4-HPP usually ranged from 1 to 100 μM. • 3. The absorbance changes of the reaction wells at 318 nm were continuously monitored by a UV ELISA detector (ReadMax 1900 photoabsorption type full-wavelength microplate reader) (Shanghai). • 4. Determination of Km, Kcat and Kcat/Km of OsHPPDs
Vmax is the maximum catalytic reaction rate achievable by enzymatic catalysis. The Michaelis constant Km is the concentration of a substrate required when the enzyme catalyzed the reaction to achieve half of the maximum rate (Vmax). The Km value is a constant and independent of the enzyme concentration, and altered as substrate type, reaction temperature, pH, and ionic strength changed. […] is a catalytic constant of an enzyme and referred to the number of substrate molecules that could be catalyzed by an enzyme molecule or enzyme active center per second. KCat/Km represents the catalytic efficiency of enzyme. It could be seen from the data in the table that the catalytic efficiency of most HPPD mutants was enhanced.

A further data set relates to OsHPPD proteins. The data set is described as follows: Inhibitory activity (IC50) of the herbicide 101 and huanbifucaotong against OsHPPD proteins. Type of data set: biochemical, Oryza sativa. To be noted: herbicides 101 and huanbifucaotong. As for the experimental part: as §1
• 5. Determination of inhibitory activity (IC50) of the herbicide 101 and huanbifucaotong against OsHPPD proteins
Due to the unique properties of each of 101 and huangbifucaotong, the degree of the increased IC50 value is not completely consistent for the two HPPD herbicides.

Positions count from the first letter of the chain named. Names and notes keep the numbering of the source.

B1: G342D: single-site mutant rice HPPD (protein, listed as Oryza sativa)
chain: MPPTPTPTATTGAVSAAAAAGENAGFRLVGHRRFVRANPRSDRFQALAFHHVELWCADAASAAGRFAFALGAPLAARSDLSTGNSAHASLLLRSASVAFLFTAPYGGDHGVGADAATTASIPSFSPGAARRFAADHGLAVHAVALRVADAADAFRASVAAGARPAFQPADLGGGFGLAEVELYGDVVLRFVSHPDGADAPFLPGFEGVSNPGAVDYGLRRFDHVVGNVPELAPVAAYISGFTGFHEFAEFTAEDVGTAESGLNSVVLANNAETVLLPLNEPVHGTKRRSQIQTYLDHHGGPGVQHIALASDDVLGTLREMRARSAMGGFEFLAPPPPNYYDDVRRRAGDVLSEEQINECQELGVLVDRDDQGVLLQIFTKPVGDRPTFFLEMIQRIGCMEKDESGQEYQKGGCGGFGKGNFSELFKSIEEYEKSLEAKQAPTVQGS
modifications: The amino acid sequence of Wild-Type rice HPPD protein (OsHPPD _WT)
For the molecule B1, the “color change compared with wild type” value with rice HPPD (OsHPPD) (tembotrione and metabolic product of benzuofucaotong, FIG. 1) is “obviously deeper than that of the wild type”.

B2: H141R/G342D/G419F: mutant rice HPPD (protein)
chain: B1 chain with H141R, G419F
As for B2, the Km in the data set with OsHPPD was found to be 7.9 µM.

B3: H141R/N338D/G342D: mutant rice HPPD (protein)
chain: B1 chain with H141R, N338D
With B3, in the data set with OsHPPD, the “affinity to substrate (Km)” value is reported as “not reduced” and the Km was 6.3 µM. In addition, the “resistance in in vitro enzyme activity experiments” value in the data set on OsHPPD proteins was “relatively high resistance”.

B4: H141R/G342D/K418P: mutant rice HPPD (protein)
chain: B1 chain with H141R, K418P
In the case of B4, in the data set on OsHPPD, the Km is 30.6 µM.

B5: N338D/G342D/R346C: mutant rice HPPD (protein, listed as Oryza sativa)
chain: B1 chain with N338D, R346C
modifications: The amino acid sequence of Wild-Type rice HPPD protein (OsHPPD _WT)
As for B5, the Km with OsHPPD was 9.5 µM. Moreover, the “resistance ranking in color reaction” value in the data set with rice HPPD (OsHPPD) is on record as “highest resistance”.

B6: H141R/N338D/N420S: mutant rice HPPD (protein)
chain: B1 chain with H141R, N338D, D342G, N420S
In the case of B6, the Michaelis constant (Km) in the data set on OsHPPD turned out to be 5.1 µM.

B7: N338D/G342D: mutant rice HPPD (protein)
chain: B1 chain with N338D
B7: the Km in the data set with OsHPPD amounted to 2.1 µM.

B8: 103: single-site mutant rice HPPD, A103S (protein)
chain: B1 chain with A57S, A103S, D342G
modifications: The amino acid sequence of rice HPPD mutant (OsHPPD_A103S)
notes: single-site mutant rice HPPD, A103S
Take B8: in the data set with rice HPPD (OsHPPD) (Table 1, single-site mutants, estimated from color change, wild type = +), the “relative resistance to Huanbifucaotong” value is “+”.

B9: H141R/N338D/G342D/R346H: mutant rice HPPD (protein)
chain: B1 chain with H141R, N338D, R346H
As to B9, the Km in the data set on OsHPPD is 7.6 µM.

B10: G342D/R346C: mutant rice HPPD (protein, listed as Oryza sativa)
chain: B1 chain with R346C
modifications: The amino acid sequence of Wild-Type rice HPPD protein (OsHPPD _WT)
B10: the Km in the data set with OsHPPD was determined as 5.9 µM.

B11: N338S/G342D/R346C (protein)
chain: B1 chain with N338S, R346C
On to B11, for which, in the data set with rice HPPD (OsHPPD), the “resistance ranking in color reaction” value is given as “highest resistance”.

B12: H141R/N338D/G342D/R346C: mutant rice HPPD (protein)
chain: B1 chain with H141R, N338D, R346C
On to B12, for which, in the data set with OsHPPD, the Km was 7.4 µM.

B13: H141R/N338D/G342D/K418P/G419F/N420S: mutant rice HPPD (protein)
chain: B1 chain with H141R, N338D, K418P, G419F, N420S
With B13, the Km in the data set with OsHPPD stood at 23 µM.
